Earlier results on two substances are cited in patent US7858117B2, “Amphoteric liposomes and their use” (Novosom AG, priority 2002, dated 2010).

For the substance lysozyme, the pI (protein) is given as 11.5.

As for cholesterol hemisuccinate, the “pK value of the carboxyl group” value (state of the art) was “approximately 4.5”.
